Reference: publication PMC12442389

Experiments:
[1] = molecular target: CW7_Lyz2 (amino acids 142 to 473, two cpl-7 motifs and the glucosaminidase domain of PlyCYU) (Streptococcus suis (prophage λSa2%2C)); experiment: SEC; SEC-UV; Superdex 200 Increase 10/300 GL; 50 mM phosphate buffer, pH 7.5, 150 mM NaCl; 0.1-0.4 mg/mL protein; 0.5 mL/min; mass from a calibration curve of standard proteins; PlyCYU214 also with 500 mM NaCl; self-association
[2] = molecular target: CW7_Lyz2 (amino acids 142 to 473, two cpl-7 motifs and the glucosaminidase domain of PlyCYU) (Streptococcus suis (prophage λSa2%2C)); experiment: SEC-MALS; Superdex 200 Increase 5/150 GL; 20 mM sodium phosphate, pH 7.0, 150 mM NaCl; 10 µL injected at 10 mg/mL; 0.2 mL/min; self-association, oligomeric number from mass over subunit mass
[3] = molecular target: His6-tagged PlyCYU endolysin (full-length) (Streptococcus suis (prophage λSa2%2C)); experiment: SEC; SEC-UV; Superdex 200 Increase 10/300 GL; 50 mM phosphate buffer, pH 7.5, 150 mM NaCl; 0.1-0.4 mg/mL protein; 0.5 mL/min; mass from a calibration curve of standard proteins; PlyCYU214 also with 500 mM NaCl; self-association
[4] = molecular target: His6-tagged PlyCYU endolysin (full-length) (Streptococcus suis (prophage λSa2%2C)); experiment: SEC-MALS; Superdex 200 Increase 5/150 GL; 20 mM sodium phosphate, pH 7.0, 150 mM NaCl; 10 µL injected at 10 mg/mL; 0.2 mL/min; self-association, oligomeric number from mass over subunit mass
[5] = molecular target: cyuLyz2 (amino acids 266 to 473, glucosaminidase domain of PlyCYU) (Streptococcus suis (prophage λSa2%2C)); experiment: SEC; SEC-UV; Superdex 200 Increase 10/300 GL; 50 mM phosphate buffer, pH 7.5, 150 mM NaCl; 0.1-0.4 mg/mL protein; 0.5 mL/min; mass from a calibration curve of standard proteins; PlyCYU214 also with 500 mM NaCl; self-association
[6] = molecular target: cyuLyz2 (amino acids 266 to 473, glucosaminidase domain of PlyCYU) (Streptococcus suis (prophage λSa2%2C)); experiment: SEC-MALS; Superdex 200 Increase 5/150 GL; 20 mM sodium phosphate, pH 7.0, 150 mM NaCl; 10 µL injected at 10 mg/mL; 0.2 mL/min; self-association, oligomeric number from mass over subunit mass

Substance: CW7_Lyz2 (amino acids 142 to 473, two cpl-7 motifs and the glucosaminidase domain of PlyCYU) (domain or fragment)
- stoichiometry N [1]: 11.8
- stoichiometry N [2]: 4.4

Substance: His6-tagged PlyCYU endolysin (full-length) (enzyme)
- stoichiometry N [3]: 6.8
- stoichiometry N [4]: 5.2

Substance: cyuLyz2 (amino acids 266 to 473, glucosaminidase domain of PlyCYU) (domain or fragment)
- stoichiometry N [5]: 6.9
- stoichiometry N [6]: 3.9
